Paper PMC2174230 (The Journal of Cell Biology, 1999)

Molecular target: T1, GST-Kap122p (S. cerevisiae, UniProt P32767 1-1081)
T1 sequence: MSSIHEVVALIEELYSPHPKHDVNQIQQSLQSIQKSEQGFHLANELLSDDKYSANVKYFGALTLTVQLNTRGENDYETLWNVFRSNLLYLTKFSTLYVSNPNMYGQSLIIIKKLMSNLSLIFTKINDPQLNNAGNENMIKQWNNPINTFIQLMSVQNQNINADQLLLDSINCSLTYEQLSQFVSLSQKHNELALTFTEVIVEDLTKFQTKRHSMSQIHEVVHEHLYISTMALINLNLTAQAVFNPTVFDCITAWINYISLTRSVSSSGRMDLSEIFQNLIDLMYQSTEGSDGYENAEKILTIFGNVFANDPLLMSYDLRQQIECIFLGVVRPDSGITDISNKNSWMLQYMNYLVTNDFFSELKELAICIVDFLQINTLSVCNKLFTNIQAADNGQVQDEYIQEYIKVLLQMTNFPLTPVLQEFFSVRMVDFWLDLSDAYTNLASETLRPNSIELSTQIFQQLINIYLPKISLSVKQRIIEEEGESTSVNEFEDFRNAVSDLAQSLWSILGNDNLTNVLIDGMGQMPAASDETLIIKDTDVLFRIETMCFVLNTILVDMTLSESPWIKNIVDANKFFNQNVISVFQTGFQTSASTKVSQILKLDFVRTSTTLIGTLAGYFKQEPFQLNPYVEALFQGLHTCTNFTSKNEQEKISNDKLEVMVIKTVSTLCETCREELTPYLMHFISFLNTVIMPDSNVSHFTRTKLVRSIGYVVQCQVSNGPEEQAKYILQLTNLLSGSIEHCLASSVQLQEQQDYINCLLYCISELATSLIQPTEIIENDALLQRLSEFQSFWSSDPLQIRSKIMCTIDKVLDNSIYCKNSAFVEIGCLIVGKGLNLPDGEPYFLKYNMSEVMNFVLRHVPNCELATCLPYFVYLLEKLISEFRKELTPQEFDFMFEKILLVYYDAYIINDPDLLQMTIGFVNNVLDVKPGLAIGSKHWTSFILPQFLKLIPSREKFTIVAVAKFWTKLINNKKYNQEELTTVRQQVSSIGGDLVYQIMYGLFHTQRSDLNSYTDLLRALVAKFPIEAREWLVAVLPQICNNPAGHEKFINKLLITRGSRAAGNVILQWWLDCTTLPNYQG
Test: pull-down

B1: His6-Toa1p/Toa2p complex (recombinant TFIIA) (complex)
chain 1: MSNAEASRVYEIIVESVVNEVREDFENAGIDEQTLQDLKNIWQKKLTETKVTTFSWDNQFNEGNINGVQNDLNFNLATPGVNSSEFNIKEENTGNEGLILPNINSNNNIPHSGETNINTNTVEATNNSGATLNTNTSGNTNADVTSQPKIEVKPEIELTINNANITTVENIDDESEKKDDEEKEEDVEKTRKEKEQIEQVKLQAKKEKRSALLDTDEVGSELDDSDDDYLISEGEEDGPDENLMLCLYDKVTRTKARWKCSLKDGVVTINRNDYTFQKAQVEAEWV
chain 2: MAVPGYYELYRRSTIGNSLVDALDTLISDGRIEASLAMRVLETFDKVVAETLKDNTQSKLTVKGNLDTYGFCDDVWTFIVKNCQVTVEDSHRDASQNGSGDSQSVISVDKLRIVACNSKKSE
  binding result: binds
